Assay results taken from patent US20210363232A1 (Eli Lilly, published 2021).
Values belong to the binder of their own block, whether it stands above or below them.

B4: mature Human IL-34 (ligand)
chain: NEPLEMWPLTQNEECTVTGFLRDKLQYRSRLQYMKHYFPINYKISVPYEGVFRIANVTRLQRAQVSERELRYLWVLVSLSATESVQDVLLEGHPSWKYLQEVETLLLNVQQGLTDVEVSPKVESVLSLLNAPGPNLKLVRPKALLDNCFRVMELLYCSCCKQSSVLNWQDCEVPSPQSCSPEPSLQYAATQLYPPPPWSPSSPPHSTGSVRPVRAQGEGLLP
notes: if the entry is the precursor, residues 21-242 apply; NCBI NP_689669.2 is printed; also called hIL-34; h IL-34

What was measured:
mature Human IL-34 [1] = molecular target: B4; test: MSD solution equilibrium titration at 37 C; fixed antibody, IL-34 titrated, free antibody captured on IL-34-coated plate; mean ± STDEV, n = 5
Description: (§1) Briefly, usually a 2-fold or 3-fold dilution series of human, cyno or mouse IL-34 is prepared from a starting concentration of 40, or 50 or 60 or 80 or 100 or 120 nM to 100 fM; and each series includes an IL-34 blank control. Samples are prepared in 3% (w/v) Blocker A solution (MSD®, #R93AA-1) and a fixed final concentration of 5-50 pM of each exemplified antibody in Table 1 is added to each sample. An antibody only control is included. A volume of 50 μl of each protein-antibody sample is added to individual wells of a 96-well microtiter plate (Greiner, EK-20101). The plate is sealed with optical adhesive film (Thermo Fisher Scientific, #4311971) and incubated at 37° C. for 1-3 days to allow for sample equilibrium. On the day before analysis, each row of a 96-well MSD® Standard plate (MSD®, #L15XA) is coated with 30 μl of the corresponding IL-34 (as used in the titration series) at a concentration of 1 μg/ml in phosphate buffered saline (PBS). […] The plate is washed three more times with PBST followed by the addition of 150 μl/well of 1× Read buffer (MSD®, #R92TC-2). The MSD® Standard plate is read using a MESO Quickplex SQ 120/1300 instrument (Meso Scale Discovery).

mature Human IL-34 [2] = molecular target: B4; test: cell-based or functional assay
Cyno IL-34 [3] = molecular target: T1, Cyno IL-34 (cyno (cynomolgus monkey), UniProt G7Q1L3 21-242); test: cell-based or functional assay
T1 sequence: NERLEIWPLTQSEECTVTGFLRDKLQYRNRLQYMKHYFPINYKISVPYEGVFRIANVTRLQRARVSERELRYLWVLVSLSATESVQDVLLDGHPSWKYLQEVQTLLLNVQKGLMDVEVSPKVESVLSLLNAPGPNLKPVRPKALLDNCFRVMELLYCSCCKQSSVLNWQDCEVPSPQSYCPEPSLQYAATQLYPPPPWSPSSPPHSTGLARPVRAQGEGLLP

Cyno IL-34 [4] = molecular target: T1, Cyno IL-34; test: MSD solution equilibrium titration at 37 C; fixed antibody, cyno IL-34 titrated; mean ± STDEV, n = 5
Description: as §1

mature Human IL-34 [5] = molecular target: B4; test: cell-based or functional assay; remark: listed apart in the source
Mouse IL-34 = molecular target: T2, Mouse IL-34 (mouse, UniProt Q8R1R4 21-235); test: MSD solution equilibrium titration at 37 C; fixed antibody, mouse IL-34 titrated
T2 construct: NCBI NP_001128572.1 is printed; also called Murine IL-34
T2 sequence: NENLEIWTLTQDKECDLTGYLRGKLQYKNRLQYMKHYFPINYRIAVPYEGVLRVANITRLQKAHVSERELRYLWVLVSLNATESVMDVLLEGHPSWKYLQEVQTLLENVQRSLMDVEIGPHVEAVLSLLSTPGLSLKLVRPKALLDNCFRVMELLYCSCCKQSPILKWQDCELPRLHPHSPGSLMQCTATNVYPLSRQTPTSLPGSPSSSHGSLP
Description: as §1

[6] = molecular target: IL-34 (species not stated); test: cell-based or functional assay
[7] = molecular target: T3, Human CSF1R Fc fusion protein (Exemplified compound D) (human, UniProt P07333 20-512, limits assumed); test: MSD solution equilibrium titration at 37 C; fixed Fc fusion, IL-34 titrated, free protein captured on IL-34-coated plate; mean ± STDEV, n = 5
T3 construct: Made in house and purified by MabSelect SuRe and size exclusion; also called hCSF1R-Fc; Exemplified compound D (hCSF1R-Fc); not shown: Fc part
T3 sequence (P07333 20-512 limits assumed): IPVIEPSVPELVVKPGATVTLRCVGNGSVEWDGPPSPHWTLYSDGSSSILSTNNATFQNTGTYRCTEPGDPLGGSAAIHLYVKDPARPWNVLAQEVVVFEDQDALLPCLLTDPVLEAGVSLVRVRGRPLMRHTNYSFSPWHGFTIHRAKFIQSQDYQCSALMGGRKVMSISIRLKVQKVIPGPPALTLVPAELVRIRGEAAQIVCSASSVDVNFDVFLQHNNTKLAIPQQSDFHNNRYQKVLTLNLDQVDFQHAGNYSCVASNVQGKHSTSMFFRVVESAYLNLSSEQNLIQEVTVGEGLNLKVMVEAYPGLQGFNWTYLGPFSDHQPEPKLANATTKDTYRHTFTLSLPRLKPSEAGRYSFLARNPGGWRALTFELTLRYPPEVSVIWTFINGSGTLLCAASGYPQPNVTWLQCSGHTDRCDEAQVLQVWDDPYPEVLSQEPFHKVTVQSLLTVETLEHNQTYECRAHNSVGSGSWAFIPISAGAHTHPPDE

B1: Antibody 1 (antibody, human IgG4 S228P, kappa, F234A L235A, V domains shown)
VH: EVQLLESGGGLVQPGGSLRLSCAASGFTFSSYATSWVRQAPGKGLEWVSAISHSGRSTYYADSVKGRFTISRDNSKNTLYLQMNSLRAEDTAVYYCARGRSSLDTWGQGTLVTVSS
VL: EIVLTQSPGTLSLSPGERATLSCRASQSISSAYLAWYQQKPGQAPRLLIYASSIRPTGIPDRFSGSGSGTDFTLTISPLEPEDFAVYYCSQYGDSLSFGGGTKVEIKR
notes: Human anti-human IL-34 antibody with a modified IgG4 (IgG4PAA) heavy chain and kappa light chain; also called Exemplified Antibody 1
- Kd (mature Human IL-34 [1]): 0.059 nM
- IC50; neutralization of human IL-34 induced luciferase reporter activity, hCSF1R 293 SRE cells (mature Human IL-34 [2]): 0.385 nM
- IC50; neutralization of cyno IL-34 induced luciferase reporter activity, hCSF1R 293 SRE cells (Cyno IL-34 [3]): 0.654 nM
- Kd (Cyno IL-34 [4]): 0.108 nM
- IC50; inhibition of human IL-34 induced CSF1R dimerization, PathHunter eXpress assay (mature Human IL-34 [5]): 0.226 nM

Binder: B4
- Kd [7]: 0.056 nM

Second part, the binder after the results:

- Kd (Mouse IL-34): 0.016 nM
- IC50; inhibition of IL-34 induced ERK phosphorylation in NIH-3T3/CSF1R cells [6]: 15.7 nM
B2: Antibody 3 (antibody, mouse IgG1, kappa, V domains shown)
VH: EVQLLESGGGLVQPGGSLRLSCAASGFTFSYYAMSWVRQAPGKGLEWVSAISHRGGSTLYADSVKGRFTISRDNSKNTLYLQMNSLRAEDTAVYYCARGRSSLDGWGQGTMVTVSS
VL: EIVLTQSPGILSLSPGERASLSCRASTSVSSAYLAWYQQKPGQAPRLLIYASSHRPLGIPDRFSGSGSGTDFTLTISRLEPEDFAVYYCQQYGDSLSFGGGTKVEIKR
notes: Antibody optimised against mouse IL-34; The printed constant regions look murine, and a mIgG1 control is used in vivo; also called Exemplified Antibody 3

- Kd (mature Human IL-34 [1]): 0.054 nM
- Kd (Cyno IL-34 [4]): 0.152 nM
B3: Antibody 2 (antibody, human IgG4 S228P, kappa, F234A L235A, V domains shown)
VH: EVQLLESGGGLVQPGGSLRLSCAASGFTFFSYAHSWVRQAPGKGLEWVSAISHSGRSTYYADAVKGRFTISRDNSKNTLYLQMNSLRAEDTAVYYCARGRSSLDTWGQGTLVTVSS
VL: EIVLTQSPGTLSLSPGERATLSCRASQSISSAYLAWYQQKPGQAPRLLIYASSIRPTGIPDRFSGSGSGTDFTLTISPLEPEDFAVYYCSQYGDSLSFGGGTKVEIKR
notes: Shares its light chain with Antibody 1; Modified IgG4 heavy chain; also called Exemplified Antibody 2
